Measurements published in publication PMC12221994.

Assays:
KU70/80;DNA-PKcs;TRF2 = KU70/80;DNA-PKcs;TRF2 (human;human;human, UniProt P12956;P13010;P78527;Q15554 1-609;1-732;1-4128;1-542, ||); test: KU pull-down; TRF2 association with KU mediated by template DNA; Footprinting: 25 mM HEPES pH 7.6, 80 mM KCl, 1.5 mM CaCl2, 1.5 mM MgCl2, 5% glycerol, 50 ug/ml BSA, 2 mM DTT, ice then 37 C (EMSA same buffer, 37 C); pull-down: 20 mM HEPES pH 7.6, 80 mM KCl, 5% glycerol, 0.01% NP-40, 1 mM DTT, 30 C; cryo-EM: 40 mM HEPES pH 7.6, 100 mM NaCl, 3 mM MgCl2, 4 C; settings: protein: recombinant;native;recombinant; tags: FLAG (KU70 N-terminal);;dual strep; copies: 1;1;1;2; blunt
KU70/80;DNA-PKcs = KU70/80;DNA-PKcs (human;human, UniProt P12956;P13010;P78527 1-609;1-732;1-4128, |); test: KU pull-down; DNA-PKcs associates with KU in a DNA-dependent manner; Footprinting: 25 mM HEPES pH 7.6, 80 mM KCl, 1.5 mM CaCl2, 1.5 mM MgCl2, 5% glycerol, 50 ug/ml BSA, 2 mM DTT, ice then 37 C (EMSA same buffer, 37 C); pull-down: 20 mM HEPES pH 7.6, 80 mM KCl, 5% glycerol, 0.01% NP-40, 1 mM DTT, 30 C; cryo-EM: 40 mM HEPES pH 7.6, 100 mM NaCl, 3 mM MgCl2, 4 C; settings: protein: recombinant;native; tags: FLAG (KU70 N-terminal);; copies: 1;1;1; blunt

B1: PE3/PE4 telomeric duplex (dsDNA)
DNA 1: CGTCTATATTCTATTGTCTCTTAGGGTTAGGGTTAGGGTTAGGGTTAGGGTTAGGGTTAGGGTTAGGGTTAACATCAGTCTCACATAGATTAGCTCACGC
DNA 2: GCGTGAGCTAATCTATGTGAGACTGATGTTAACCCTAACCCTAACCCTAACCCTAACCCTAACCCTAACCCTAACCCTAAGAGACAATAGAATATAGACG
binding result (KU70/80;DNA-PKcs;TRF2): binds | binding result (KU70/80;DNA-PKcs): binds
